# Paper PMC7532178, “Interaction of protocadherin-15 with the scaffold protein whirlin supports its anchoring of hair-bundle lateral links in cochlear hair cells” (Scientific Reports, 2020)
# B1: whirlin-NTR-PDZ1-Hp1 (aa residues 2-265) [mouse] / PCDH15-CD2 C-terminal peptide (biotin-TTDS-GANSEQYNTAL) [modified: biotin-TTDS (trioxatridecan-succinamic acid spacer) on the N-terminus; biotin-TTDS (trioxatridecan-succinamic acid … (parent complex)
# chain 1: GAMGSTSNAQLDGLSVSSSSTGSLGSAAAAAGGGGGAGLRLLSANVRQLHQALTALLSEPEREQFTHCLNAYHARRNVFDLVRTLRVLLDSPVKRRLLPMLRLVIPRSDQLLFDQYTAEGLYLPATTPYRQPAWAAPDGAGPGEVRLVSLRRAKAHEGLGFSIRGGSEHGVGIYVSLVEPGSLAEKEGLRVGDQILRVNDKSLARVTHAEAVKALKGSKKLVLSVYSAGRIPGGYVTNHIYTWVDPQGRSTSPPSSLPQPHGSTLRQREDD
# chain 2: GANSEQYNTAL
# B2: whirlin-NTR-PDZ1-Hp1 (aa residues 2-265) [mouse] / CDH23 C-terminal peptide (biotin-TTDS-VIMESPLEITEL) [modified: biotin-TTDS (trioxatridecan-succinamic acid spacer) on the N-terminus; biotin-TTDS (trioxatridecan-succinamic acid spacer) on … (parent complex)
# chain 1: B1 chain 1
# chain 2: VIMESPLEITEL
# B3: whirlin-NTR-PDZ1-Hp1 (aa residues 2-265) [mouse] / PCDH15-CD3 C-terminal peptide (biotin-TTDS-MGPWNSLHIPMTKL) [modified: biotin-TTDS (trioxatridecan-succinamic acid spacer) on the N-terminus; biotin-TTDS (trioxatridecan-succinamic acid … (parent complex)
# chain 1: B1 chain 1
# chain 2: MGPWNSLHIPMTKL
# B4: whirlin-NTR-PDZ1-Hp1 (aa residues 2-265) [mouse] / PCDH15-CD1 C-terminal peptide (biotin-TTDS-GIDVQPHSQSTSL) [modified: biotin-TTDS (trioxatridecan-succinamic acid spacer) on the N-terminus; biotin-TTDS (trioxatridecan-succinamic acid … (parent complex)
# chain 1: B1 chain 1
# chain 2: GIDVQPHSQSTSL
# Variants of: B1
# Test: SPR; whirlin construct at 10 μM; peptide immobilized via N-terminal biotin tag; parent: 15; read off a plot
row,response [% site occupancy],Variant
1,~0.5,chain 1 H208Y
2,~2.5,chain 1 G160A

# Variants of: B2
# Test: SPR; whirlin construct at 10 μM; peptide immobilized via N-terminal biotin tag; parent: 11; read off a plot
row,response [% site occupancy],Variant
1,~1.5,chain 1 G160A
2,~1,chain 1 H208Y

# Variants of: B3
# Test: SPR; whirlin construct at 10 μM; peptide immobilized via N-terminal biotin tag; parent: 29; read off a plot
row,response [% site occupancy],Variant
1,~9.5,chain 1 G160A
2,~1.5,chain 1 H208Y

# Variants of: B4
# Test: SPR; whirlin construct at 10 μM; peptide immobilized via N-terminal biotin tag; parent: 23; read off a plot
row,response [% site occupancy],Variant
1,~-1,chain 1 H208Y
2,~2,chain 1 G160A
